Experiment [1] addresses T1, recombinant human LILRA1/LIR-6 (Sino Biological 17220-H08H-100) (human, UniProt O75019 17-461).
T1 construct: Bought
Kind of experiment: SPR, LILRA and LILRB family panel. The text has this:
(§1) Irrelevant antibody VRC01 IgG1 N297A was used as a negative isotype control.
For orientation: In SPR one partner is held on a chip, and binding of the other changes the refractive index at the surface.

The target in experiment [2] is T2, recombinant human LILRA3/ILT6 (Sino Biological 13549-H08H-100) (human, UniProt Q8N6C8 24-439).
T2 construct: Bought
T2 sequence (Q8N6C8 24-439 limits assumed): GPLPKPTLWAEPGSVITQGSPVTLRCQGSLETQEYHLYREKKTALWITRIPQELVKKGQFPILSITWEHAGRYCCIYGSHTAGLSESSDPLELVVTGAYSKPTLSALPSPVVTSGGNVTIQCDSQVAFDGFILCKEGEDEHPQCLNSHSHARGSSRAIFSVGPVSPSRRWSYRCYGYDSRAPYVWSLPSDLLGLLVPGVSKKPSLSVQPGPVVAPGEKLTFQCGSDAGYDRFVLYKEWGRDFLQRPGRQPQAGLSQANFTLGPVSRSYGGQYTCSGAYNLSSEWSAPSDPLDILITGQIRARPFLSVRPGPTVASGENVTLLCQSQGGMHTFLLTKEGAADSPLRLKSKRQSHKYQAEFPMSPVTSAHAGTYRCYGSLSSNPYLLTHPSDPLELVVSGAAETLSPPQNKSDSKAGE
Kind of experiment: SPR, LILRA and LILRB family panel.
From the text: as §1

The target of experiment [3] is T3, ECD-His tagged human ILT2 haplotype PE01 (human, UniProt Q8NHL6 24-458).
T3 construct: also called Human ILT2 PE01 ECD; LILRB1/ILT2 PE01; not shown: His tag
T3 sequence (Q8NHL6 24-458): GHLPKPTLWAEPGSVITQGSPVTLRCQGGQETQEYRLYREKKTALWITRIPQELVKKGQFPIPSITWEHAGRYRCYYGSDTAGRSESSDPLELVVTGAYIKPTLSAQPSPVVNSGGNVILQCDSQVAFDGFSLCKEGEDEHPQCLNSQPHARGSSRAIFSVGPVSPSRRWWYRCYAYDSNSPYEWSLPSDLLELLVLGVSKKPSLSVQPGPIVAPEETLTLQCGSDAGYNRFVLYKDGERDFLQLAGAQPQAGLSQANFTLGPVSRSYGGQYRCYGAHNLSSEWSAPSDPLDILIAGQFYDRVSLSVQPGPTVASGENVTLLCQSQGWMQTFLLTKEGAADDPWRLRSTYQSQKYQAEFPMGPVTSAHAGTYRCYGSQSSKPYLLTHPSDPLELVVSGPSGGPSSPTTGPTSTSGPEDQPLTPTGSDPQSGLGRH
Kind of experiment: SPR, LILRA and LILRB family panel.
From the text: as §1

For experiment [4], the target named is T4, human ILT2 extracellular and transmembrane domains expressed on CHO cells (human, UniProt Q8NHL6 24-482, limits assumed).
T4 construct: domain: extracellular and transmembrane domains; which one is told under assay; also called CHO cells expressing human ILT2 (relatively low or relatively high level); CHO-ILT2 cells
T4 sequence (Q8NHL6 24-482 limits assumed): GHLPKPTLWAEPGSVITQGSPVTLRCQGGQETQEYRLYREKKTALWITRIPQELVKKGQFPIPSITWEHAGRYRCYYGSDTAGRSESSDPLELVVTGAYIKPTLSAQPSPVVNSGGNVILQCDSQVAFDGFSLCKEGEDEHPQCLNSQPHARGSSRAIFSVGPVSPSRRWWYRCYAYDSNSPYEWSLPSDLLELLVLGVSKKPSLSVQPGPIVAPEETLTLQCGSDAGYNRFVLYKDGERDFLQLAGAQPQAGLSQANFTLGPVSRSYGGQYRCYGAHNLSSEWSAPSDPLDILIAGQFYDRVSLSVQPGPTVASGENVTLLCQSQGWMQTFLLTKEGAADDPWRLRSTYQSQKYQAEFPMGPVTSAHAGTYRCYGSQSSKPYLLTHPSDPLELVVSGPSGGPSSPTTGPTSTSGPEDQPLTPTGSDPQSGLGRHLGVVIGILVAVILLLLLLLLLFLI
Briefly: flow cytometry, CHO cells with high human ILT2. The protocol:
(§2) CHO cells expressing relatively high and low levels of human ILT2 were seeded in a 96-well U-bottom tissue culture plate at a density of 2×10⁵ cells per well in 50 μL of PBS supplemented with 0.5% BSA, 1 mM EDTA and 0.05% sodium azide (FACS Buffer). The cells were incubated for 30 minutes at 4° C. with 50 μL of a series dilution of anti-ILT2 antibodies or isotype control (VRC01 IgG₄) at concentrations from 10 μg/mL to 0.2 ng/mL in FACS Buffer.
(§3) For antibody staining, the cells were washed three times with cold FACS Buffer and resuspended in FACS Buffer containing a FITC-conjugated mouse anti-human IgG₄ antibody (Southern Biotech/9190-02) at a final concentration of […]. After a 30-minute incubation in the dark at 4° C., the cells were washed three times and analyzed as above.
A general note: A flow cytometer gives signals particle by particle.

Experiment [5] concerns the target T5, full-length ILT2 expressed on Jurkat cells (human, UniProt Q8NHL6 24-650). Kind of experiment: cell-based or functional assay.
For experiment [6], the target named is T4, human ILT2 extracellular and …. Kind of experiment: flow cytometry, CHO cells with low human ILT2. The procedure: as §2, §3
Experiment [7] concerns the target T6, recombinant human LILRA6/ILT8 (Sino Biological 29813-H08H-50) (human, UniProt Q6PI73 24-447).
T6 construct: Bought
Kind of experiment: SPR.
From the text: as §1

Experiment [8] has as its target T7, recombinant human LILRA5/ILT11 (Sino Biological 16059-H08H-100) (human, UniProt A6NI73 42-268).
T7 construct: Bought
Briefly: SPR.
From the text: as §1

In experiment [9] the target is T8, recombinant human LILRB3/ILT5 (R&D Systems 9159-T5-050) (human, UniProt O75022 24-443).
T8 construct: Bought
Kind of experiment: SPR.
From the text: as §1

In experiment [10] the target is T9, recombinant human LILRB4/ILT3 (Sino Biological 16742-H08H) (human, UniProt Q8NHJ6 22-259).
T9 construct: Bought
Kind of experiment: SPR.
From the text: as §1

Experiment [11] addresses T10, recombinant human LILRA4/ILT7 (Sino Biological 16058-H08H-50) (human, UniProt P59901 24-446).
T10 construct: Bought
Briefly: SPR.
From the text: as §1

Experiment [12] deals with T11, recombinant human LILRA2/ILT1 (R&D Systems 9040-T4-050) (human, UniProt Q8N149 24-449).
T11 construct: Bought
T11 sequence (Q8N149 24-449 limits assumed): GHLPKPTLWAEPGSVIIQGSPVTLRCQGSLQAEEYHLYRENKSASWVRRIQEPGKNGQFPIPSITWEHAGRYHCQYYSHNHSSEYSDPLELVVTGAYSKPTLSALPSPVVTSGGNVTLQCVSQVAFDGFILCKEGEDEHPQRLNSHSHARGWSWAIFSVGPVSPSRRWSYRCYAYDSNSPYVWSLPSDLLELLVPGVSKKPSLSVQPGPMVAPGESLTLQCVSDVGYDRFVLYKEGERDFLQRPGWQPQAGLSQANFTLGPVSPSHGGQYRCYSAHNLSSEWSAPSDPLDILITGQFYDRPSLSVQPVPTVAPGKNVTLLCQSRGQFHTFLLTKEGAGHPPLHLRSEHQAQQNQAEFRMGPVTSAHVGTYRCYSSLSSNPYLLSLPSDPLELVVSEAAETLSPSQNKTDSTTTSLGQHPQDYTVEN
Briefly: SPR.
From the text: as §1

The target of experiment [13] is T12, recombinant human LILRB5/LIR-8 (Sino Biological 17221-H08H-100) (human, UniProt O75023 24-458).
T12 construct: Bought
T12 sequence (O75023 24-458 limits assumed): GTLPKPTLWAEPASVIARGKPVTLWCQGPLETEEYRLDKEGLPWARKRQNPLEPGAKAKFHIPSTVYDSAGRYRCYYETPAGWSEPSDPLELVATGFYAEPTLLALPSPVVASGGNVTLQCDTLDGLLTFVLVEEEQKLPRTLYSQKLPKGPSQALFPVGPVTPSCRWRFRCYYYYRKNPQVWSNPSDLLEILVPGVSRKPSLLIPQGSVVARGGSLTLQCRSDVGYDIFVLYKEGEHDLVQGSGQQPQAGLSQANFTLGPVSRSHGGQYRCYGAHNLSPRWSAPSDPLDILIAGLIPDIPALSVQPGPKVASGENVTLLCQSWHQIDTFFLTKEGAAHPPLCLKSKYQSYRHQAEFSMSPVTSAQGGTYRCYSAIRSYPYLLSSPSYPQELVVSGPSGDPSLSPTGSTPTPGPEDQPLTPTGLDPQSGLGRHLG
Briefly: SPR.
From the text: as §1

The target of experiment [14] is T13, ECD-His tagged human ILT2 haplotype PE03 (human, UniProt Q8NHL6 24-458).
T13 construct: also called Human ILT2 PE03 ECD (Sino biological, 16014-H08H); not shown: His tag
T13 sequence (Q8NHL6 other isoform, or with tags, fused parts or gaps): as the sequence (Q8NHL6 24-458) above, with L45P, I119T, S132I counted along it
Kind of experiment: SPR, captured antibody, ILT2 ECD-His analyte. The protocol: (§4) The binding affinity of anti-ILT2 antibody variants with IgG1 N297A constant regions to ECD-His tagged human ILT2 haplotypes PE01, PE02, PE03 (see Table 1) was assessed by surface plasmon resonance (SPR).
(§5) Briefly, SPR experiments were performed using a Biacore T200 instrument, and the association rate (Kₐ), dissociation rate (Kd), and dissociation constant (KD) were calculated from each experiment using a 1:1 binding model with Biacore™ T200 Evaluation Software. Capture of antibodies from the Human Fab Capture kit (28958325, GE Healthcare) to the Series S CM5 sensor chip (29149603, GE Healthcare) was performed using the immobilization wizard for amine coupling from the Biacore™ control panel and following the manufacturer's recommendations included with the kit.
(§6) Approximately 3 μg/mL of tested anti-ILT2 antibodies and controls diluted in a running buffer (10 mM HEPES, 150 mM NaCl, 3 mM EDTA, and 0.05% surfactant P20) were captured in individual flow cells of previously prepared anti Human Fab CM5 chip, keeping a single flow cell as a reference. Antibodies were captured using a 30 sec injection at a flow rate of 10 μL/min to reach about 150 resonance units (Rus). Human ILT2 ECD PE01 (diluted in the running buffer at the concentration of 30, 10, 3.3, 1.11, 0.37, 0.12 nM), and human ILT2 ECD PE02 and PE03 (diluted in the running buffer at the concentration of 33.3, 11.1, 3.7, 1.2, 0.41, 0.14 nM), were flowed over the chip surface at a flow rate of 30 μL/min with a 3-min association phase and a 10-min dissociation phase. The sensor chip was regenerated between cycles with a double 30-sec injection of 10 mM glycine, pH 2.1 at 30 μL/min followed by stabilization period of 60s. Sensorgrams were evaluated and fit to a simple Langmuir 1:1 interaction model using the global data analysis option of BIAevaluation 3.1 software. Data quality was verified by visually inspecting deviations and curve fitting, and by evaluating the parameters of Rₘₐₓ, Chi2, and Tc.

The target in experiment [15] is T3, ECD-His tagged human ILT2 haplotype PE01. Kind of experiment: SPR, captured antibody, ILT2 ECD-His analyte. The procedure:
as §4, §5, §6

The target in experiment [16] is T14, ECD-His tagged human ILT2 haplotype PE02 (human, UniProt Q8NHL6 24-458).
T14 construct: also called Human ILT2 PE02 ECD; not shown: His tag
T14 sequence (Q8NHL6 other isoform, or with tags, fused parts or gaps): as the sequence (Q8NHL6 24-458) above, with L45P, A70T, I119T, S132I counted along it
Kind of experiment: SPR, captured antibody, ILT2 ECD-His analyte. The procedure:
as §4, §5, §6

The target of experiment [17] is T4, human ILT2 extracellular and …. Briefly: flow cytometry, CHO cells with low human ILT2. The protocol: For the antibody binding assay, the cells were seeded in a 96-well U-bottom tissue culture plate at a density of 3×10⁵ cells per well in 25 μL of PBS supplemented with 0.5% BSA, 1 mM EDTA and 0.05% sodium azide (FACS Buffer). The cells were incubated for 30 minutes at 4° C. with 25 μL of a series dilution of anti-ILT2 antibodies or isotype control, at final concentrations ranging from 10 μg/mL to 0.2 ng/mL in FACS Buffer.
After a 30-minute incubation in the dark at 4° C., the cells were washed twice with cold FACS Buffer, and the cells were analyzed by flow cytometry (BD LSR Fortessa Flow Cytometer). CHO cells were identified using a plot of forward scatter-area (FSC-A) versus side scatter area (SSC-A) and another plot of FSC-A versus forward scatter-height (FSC-H) for selection of single cells. Samples were analyzed by sequentially gating on the single cell population and plotting histograms representing the fluorescence in the PE channel. For each sample, mean fluorescence intensity (MFI) was calculated, and the data were plotted by GraphPad Prism software.
The source holds these as a separate data set.

Experiment [18] addresses T5, full-length ILT2 expressed on Jurkat …. Briefly: flow cytometry, Jurkat cells expressing human ILT2.

T5 sequence (Q8NHL6 24-650): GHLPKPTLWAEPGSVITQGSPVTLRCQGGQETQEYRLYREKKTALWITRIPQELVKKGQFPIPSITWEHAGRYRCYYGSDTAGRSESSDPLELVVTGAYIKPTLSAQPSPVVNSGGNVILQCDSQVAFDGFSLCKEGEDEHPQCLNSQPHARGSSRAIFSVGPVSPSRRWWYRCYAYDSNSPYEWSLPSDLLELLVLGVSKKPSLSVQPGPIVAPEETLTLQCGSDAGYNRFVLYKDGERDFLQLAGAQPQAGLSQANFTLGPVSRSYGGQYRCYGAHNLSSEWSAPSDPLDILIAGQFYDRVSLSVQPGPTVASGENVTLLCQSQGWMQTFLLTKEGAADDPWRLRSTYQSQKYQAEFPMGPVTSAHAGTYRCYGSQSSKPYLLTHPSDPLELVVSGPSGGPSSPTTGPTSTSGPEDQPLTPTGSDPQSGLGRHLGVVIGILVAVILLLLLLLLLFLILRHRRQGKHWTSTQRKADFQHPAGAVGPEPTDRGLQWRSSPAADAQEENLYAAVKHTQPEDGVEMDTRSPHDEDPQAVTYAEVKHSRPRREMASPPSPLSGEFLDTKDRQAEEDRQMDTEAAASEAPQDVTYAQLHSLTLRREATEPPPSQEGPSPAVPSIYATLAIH
T6 sequence (Q6PI73 24-447 limits assumed): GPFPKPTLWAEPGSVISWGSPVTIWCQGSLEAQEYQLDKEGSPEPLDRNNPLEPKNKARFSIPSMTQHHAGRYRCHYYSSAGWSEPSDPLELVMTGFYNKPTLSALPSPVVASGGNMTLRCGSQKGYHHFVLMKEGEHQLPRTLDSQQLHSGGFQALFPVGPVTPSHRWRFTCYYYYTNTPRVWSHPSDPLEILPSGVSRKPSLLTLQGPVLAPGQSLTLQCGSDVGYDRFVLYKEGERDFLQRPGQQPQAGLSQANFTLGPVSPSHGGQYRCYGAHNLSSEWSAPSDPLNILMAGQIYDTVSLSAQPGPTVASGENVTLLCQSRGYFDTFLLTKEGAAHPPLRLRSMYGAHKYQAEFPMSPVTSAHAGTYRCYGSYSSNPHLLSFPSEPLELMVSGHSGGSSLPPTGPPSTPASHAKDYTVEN
T7 sequence (A6NI73 42-268 limits assumed): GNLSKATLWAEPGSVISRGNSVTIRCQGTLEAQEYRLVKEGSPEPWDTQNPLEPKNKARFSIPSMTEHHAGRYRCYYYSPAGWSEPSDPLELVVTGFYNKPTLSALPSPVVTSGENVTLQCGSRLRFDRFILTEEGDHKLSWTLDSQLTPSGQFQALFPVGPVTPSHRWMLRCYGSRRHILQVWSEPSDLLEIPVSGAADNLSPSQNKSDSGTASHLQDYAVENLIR
T10 sequence (P59901 24-446 limits assumed): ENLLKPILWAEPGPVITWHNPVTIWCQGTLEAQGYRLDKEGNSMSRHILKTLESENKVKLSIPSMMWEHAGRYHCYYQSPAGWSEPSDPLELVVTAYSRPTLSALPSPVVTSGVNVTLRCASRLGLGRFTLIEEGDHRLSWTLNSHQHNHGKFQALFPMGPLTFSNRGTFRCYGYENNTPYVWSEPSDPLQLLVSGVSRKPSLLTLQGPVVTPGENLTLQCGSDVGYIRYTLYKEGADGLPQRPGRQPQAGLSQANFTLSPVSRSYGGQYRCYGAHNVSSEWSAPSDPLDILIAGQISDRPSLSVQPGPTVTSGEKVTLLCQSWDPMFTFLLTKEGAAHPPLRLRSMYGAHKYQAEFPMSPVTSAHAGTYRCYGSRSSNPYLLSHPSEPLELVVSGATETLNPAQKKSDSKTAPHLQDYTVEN
T1 sequence (O75019 17-461 limits assumed): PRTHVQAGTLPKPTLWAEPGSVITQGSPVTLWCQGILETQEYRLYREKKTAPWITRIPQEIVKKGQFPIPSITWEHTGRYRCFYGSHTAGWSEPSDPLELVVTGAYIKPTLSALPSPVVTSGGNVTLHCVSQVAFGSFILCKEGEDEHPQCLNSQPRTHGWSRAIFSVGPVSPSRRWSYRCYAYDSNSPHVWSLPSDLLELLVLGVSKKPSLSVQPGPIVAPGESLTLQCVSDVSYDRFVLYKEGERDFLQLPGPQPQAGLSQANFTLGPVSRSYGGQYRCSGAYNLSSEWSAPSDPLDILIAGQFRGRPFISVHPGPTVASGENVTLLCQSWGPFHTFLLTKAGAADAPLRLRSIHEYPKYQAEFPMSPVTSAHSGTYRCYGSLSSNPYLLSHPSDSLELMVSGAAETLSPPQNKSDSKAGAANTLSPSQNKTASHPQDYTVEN

B1: 15G8 (Reference antibody) (antibody, V domains shown)
VH: DVQLQGSGPGLVKPSETLSLTCSVTGYSITSGYYWNWIRQFPGKKLEWMGYISYDGSNNYNPSLKNRITISRDTSKNQFSLKLNSVTAADTATYYCAHGYSYYYAMDAWGQGTSVTVSS
VL: DIQMTQSPSSLSASVGDRVTITCRTSQDISNYLNWYQQKPGKAVKLLISYTSRLHSGVPSRFSGSGSGTDYTLTISSLQPEDFATYYCQQGNTLPTFGQGTKLEIK
Consider B1, for which the Kd worked out at 21000 pM in experiment [1], 24000 pM in experiment [2] and 10000 pM in [3]. Further, the concentration for a half-maximal effect (EC50) in experiment [4] was 0.155 µg/mL; in [6], 0.019 µg/mL. Also, the “FcγRIIIa-NFAT luciferase signaling, EC50” value in experiment [5] was 0.43 µg/mL. Also, the binding result in [7], in experiment [8], in [9], in experiment [10], in experiment [11] and in experiment [12] was “no binding” throughout. Moreover, in experiment [13], the binding result was “no binding”.

B2: BA212 (antibody, human IgG1, kappa, N297A, V domains shown)
VH: QVQLVQSGAEVKKPGASVKVSCKASGYTFNRYYMHWVRQAPGQGLEWMGWINPYTGGTNYAQKFQGRVTMTRDTSISTAYMELSRLRSDDTAVYYCASKQPSSDYWGQGTLVTVSS
VL: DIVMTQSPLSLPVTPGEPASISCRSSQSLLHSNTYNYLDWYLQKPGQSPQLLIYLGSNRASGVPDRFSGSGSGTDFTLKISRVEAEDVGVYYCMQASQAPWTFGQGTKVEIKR
In experiment [14], B2 displayed a Kd of 875 pM, a koff of 0.0004 s⁻¹ and a kon of 460000 M⁻¹ s⁻¹. In experiment [15], this molecule showed a Kd of 89 pM, a koff of 3.3e-06 s⁻¹ and a kon of 37000 M⁻¹ s⁻¹. In [16], this molecule displayed a Kd of 783 pM, a koff of 0.00021 s⁻¹ and a kon of 270000 M⁻¹ s⁻¹. In experiment [17], this molecule came in with an AUC of 15100 and an EC50 of 0.087 µg/mL. For the same molecule, in [18], the AUC amounted to 222000 and a half-maximal response (EC50) required 0.057 µg/mL.

B3: BA216 (antibody, human IgG1, kappa, N297A, V domains shown)
VH: QVQLVQSGAEVKKPGASVKVSCKASGYTFNRYYMHWVRQAPGQGLEWMGWINPYTGGTNYAQKFQGRVTMTRDTSISTAYMELSRLRSDDTAVYYCASKQPSSDYWGQGTLVTVSS
VL: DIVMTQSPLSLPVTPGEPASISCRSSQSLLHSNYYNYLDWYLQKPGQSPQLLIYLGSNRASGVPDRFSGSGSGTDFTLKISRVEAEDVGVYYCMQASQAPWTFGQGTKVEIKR
In experiment [14], B3 yielded a Kd of 317 pM, a koff of 8.5e-05 s⁻¹ and a kon of 270000 M⁻¹ s⁻¹. Besides, in [15], binding was characterised by a dissociation constant (Kd) of 185 pM, the koff turned out to be 6.7e-05 s⁻¹ and the kon amounted to 360000 M⁻¹ s⁻¹. In experiment [16], this molecule had a Kd of 617 pM, a koff of 0.00014 s⁻¹ and a kon of 230000 M⁻¹ s⁻¹. In experiment [17], this molecule displayed an AUC of 14400 and an EC50 of 0.078 µg/mL. In experiment [18], this molecule showed an AUC of 199000 and an EC50 of 0.07 µg/mL.

B4: BA213 (antibody, human IgG1, kappa, N297A, V domains shown)
VH: QVQLVQSGAEVKKPGASVKVSCKASGYTFNRYYMHWVRQAPGQGLEWMGWINPYTGGTNYAQKFQGRVTMTRDTSISTAYMELSRLRSDDTAVYYCASKQPSSDYWGQGTLVTVSS
VL: not shown
For B4, the Kd in experiment [14] stood at 149 pM; in experiment [15], 33 pM; in experiment [16] it was 630 pM. In addition, the koff in experiment [14] was determined as 7.5e-05 s⁻¹; in experiment [15], 1.1e-05 s⁻¹; in experiment [16] it was 0.00015 s⁻¹. The kon in experiment [14] worked out at 500000 M⁻¹ s⁻¹; in experiment [15] it was 320000 M⁻¹ s⁻¹; in [16], 230000 M⁻¹ s⁻¹. Further, the AUC was 13600 in [17] and 189000 in experiment [18]. Moreover, the EC50 in experiment [17] was found to be 0.175 µg/mL; in experiment [18], 0.11 µg/mL.

The term Kd denotes the free concentration of one partner at which half of the binding sites on the other are occupied at equilibrium, for simple one-to-one binding. What is called EC50 is the concentration at which the effect is half-maximal. As a reminder, the koff is the first-order rate constant of dissociation. Read a high koff as a short-lived complex. What is called kon is a measure of how fast the partners come together. High values mean fast association, low ones slow association.
